# According to US20240043883A1 (Board of Trustees of Michigan State University, priority 2021, published 2024):
# Residue numbers refer to the chain shown, from its start. Numbers in names are those of the source.
# B1: Cg10062: Tautomerase superfamily enzyme from Corynebacterium glutamicum, SEQ ID NO: 21; His6-tagged form SEQ ID NO: 59 (protein)
# chain: PTYTCWSQRIRISREAKQRIAEAITDAHHELAHAPKYLVQVIFNEVEPDSYFIAAQSASENHIWVQATIRSGRTEKQKEELLLRLTQEIALILGIPNEEVWVYITEIPGSNMTEYGRLLMEPGEEEKWFNSLPEGLRERLTELEGSSE
# modifications: Cg10062 from Corynebacterium glutamicum codon-optimized for Escherichia coli
# B2: Y103F: Cg10062 variant with Y103F mutation, SEQ ID NO: 31 and 69 (protein)
# chain: B1 chain with Y103F
# modifications: Cg10062(Y103F) from Corynebacterium glutamicum codon-optimized for Escherichia coli
# B3: E114A: Cg10062 variant with E114A mutation, SEQ ID NO: 32 and 70 (protein)
# chain: B1 chain with E114A
# modifications: Cg10062(E114A) from Corynebacterium glutamicum codon-optimized for Escherichia coli
# B4: H28A: Cg10062 variant with H28A mutation, SEQ ID NO: 25 and 63 (protein)
# chain: B1 chain with H28A
# modifications: Cg10062(H28A) from Corynebacterium glutamicum codon-optimized for Escherichia coli
# B5: Y103A: Cg10062 variant with Y103A mutation, SEQ ID NO: 30 and 68 (protein)
# chain: B1 chain with Y103A
# modifications: Cg10062(Y103A) from Corynebacterium glutamicum codon-optimized for Escherichia coli
# B6: R73A: Cg10062 variant with R73A mutation, SEQ ID NO: 28 and 66 (protein)
# chain: B1 chain with R73A
# modifications: Cg10062(R73A) from Corynebacterium glutamicum codon-optimized for Escherichia coli
# B7: R70K: Cg10062 variant with R70K mutation, SEQ ID NO: 27 and 65 (protein)
# chain: B1 chain with R70K
# modifications: Cg10062(R70K) from Corynebacterium glutamicum codon-optimized for Escherichia coli
# B8: Cg10062(E114N): Novel hydratase-only Cg10062 variant with E114N mutation, SEQ ID NO: 24 and 62 (protein)
# chain: B1 chain with E114N
# modifications: Cg10062(E114N) from Corynebacterium glutamicum codon-optimized for Escherichia coli
# B9: Cg10062(E114D-Y103F): Cg10062 double variant E114D-Y103F, SEQ ID NO: 33 and 71 (protein)
# chain: B1 chain with Y103F, E114D
# modifications: Cg10062(E114D-Y103F) from Corynebacterium glutamicum codon-optimized for Escherichia coli
# B10: R70A: Cg10062 variant with R70A mutation, SEQ ID NO: 26 and 64 (protein)
# chain: B1 chain with R70A
# modifications: Cg10062(R70A) from Corynebacterium glutamicum codon-optimized for Escherichia coli
# B11: Cg10062(E114Q): Previously described Cg10062 variant with E114Q mutation, SEQ ID NO: 22 and 60 (protein)
# chain: B1 chain with E114Q
# modifications: Cg10062(E114Q) from Corynebacterium glutamicum codon-optimized for Escherichia coli
# B12: Corynebacterium glutamicum Cg10062 variant E114Q, SEQ ID NO: 60 (Corynebacterium glutamicum ATCC 13032; E115Q) (protein)
# chain: PTYTCWSQRIRISREAKQRIAEAITDAHHELAHAPKYLVQVIFNEVEPDSYFIAAQSASENHIWVQATIRSGRTEKQKEELLLRLTQEIALILGIPNEEVWVYITEIPGSNMTQYGRLLMEPGEEEKWFNSLPEGLRERLTELEGSSEENLYFQGLEHHHHHH
# B13: Corynebacterium glutamicum Cg10062 variant E114D-Y103F, SEQ ID NO: 71 (Corynebacterium glutamicum ATCC 13032; E115D/Y104F) (protein)
# chain: B12 chain with Y103F, Q114D
# B14: Corynebacterium glutamicum Cg10062 variant E114D, SEQ ID NO: 61 (Corynebacterium glutamicum ATCC 13032; E115D) (protein)
# chain: B12 chain with Q114D
# System: not listed separately
# Experiment: Coupled enzyme assay (ADH, with and without MSAD): hydratase and hydratase/decarboxylase activity and product profile of Cg10062 and variants
# Format: biochemical
# Settings: ACA 0.5 mM, pH 8; enzyme final concentration differs per variant (0.025-1.50 mg mL^−1), rates not directly comparable
# Experimental: (§1) Steady-state kinetics were carried out using a Molecular Devices SpectraMax iD3 multi-mode microplate reader and Shimadzu UV2600 spectrophotometer. All assays were carried out in triplicate at 25° C. in 100 mM sodium phosphate pH 8.0 with a final volume of 200 μL, unless otherwise specified. The reduction of acetaldehyde by NADH-dependent alcohol dehydrogenase (ADH) was monitored by following the oxidation of NADH at 340 nm (ε=6220 M^−1 cm^−1).
# (§2) All stock solutions, except ADH, required for the kinetics assays used for determining hydratase and hydratase/decarboxylase activities were prepared in 100 mM sodium phosphate pH 8.0. […] Stock solutions of ADH were prepared using deionized water, as recommended by the manufacturer. […] The final pH of each assay was 8.
# (§3) The amount of enzyme used in each assay was varied in order to observe measurable activity. Thus, the rates obtained from this experiment were not used directly to compare the enzyme activity. These activities were only used for establishing the product profile of each enzyme. The ratios of MSA and acetaldehyde formed by each enzyme was determined by the coupled enzyme assay (FIG. 13), using the differences in rates in the presence and absence of MSAD (Table 10). […] All other components used for steady-state kinetics were identical to those used in the initial screening assays.
Rate in the absence of MSAD,Rate in the presence of MSAD,Molecule
120 µM/min,146 µM/min,B1
43 µM/min,65 µM/min,B2
11 µM/min,15 µM/min,B3
4.5 µM/min,12 µM/min,B4
16 µM/min,38 µM/min,B5
no activity,no activity,B6
no activity,no activity,B7
no activity,67 µM/min,B8
no activity,39 µM/min,B9
no activity,no activity,B10
no activity,102 µM/min,B11

# Same assay, conditions: from Cg10062 activity in the presence and absence of MSAD; * from non-enzymatic decarboxylation of malonate semialdehyde
row,Product Ratio (%) acetaldehyde,Molecule
1,81%,B1
2,<1* %,B8
3,<1* %,B9
4,<1* %,B11

# Same assay, conditions: from Cg10062 activity in the presence and absence of MSAD; ACA substrate, pH 8.0, 25° C.
row,Product Ratio (%) malonate semialdehyde [%],Molecule
1,19,B1
2,>99,B8
3,>99,B9
4,>99,B11

# Same assay, conditions: in words
row,product of ACA hydration,Molecule
1,produces only malonic semialdehyde,B8

# System: not given
# Experiment: not given
# Settings: background statement; cited from earlier work
Molecule,acetaldehyde in product mixture from ACA [%],malonate semialdehyde in product mixture from ACA [%]
B1,75,25

# Same assay, conditions: previously described variants, in words; cited from earlier work
Molecule,activity relative to the Cg10062,product of ACA hydration
B11,significantly lower activity,MSA exclusively

# Substrate: C#CC(=O)O
# Experiment: purified protein, by the assay type
# Format: biochemical, Corynebacterium glutamicum
# Settings: other: ACA, 100 mM sodium phosphate pH 8.0, 25 °C
# Experimental: as §1, §2, §3
Molecule,Km [µM],kcat [s⁻¹],kcat/Km [M⁻¹ s⁻¹]
B12,64 ± 12,0.66 ± 0.04,10800 ± 2100
B13,72 ± 7,0.34 ± 0.01,4700 ± 500
B14,557 ± 62,1.12 ± 0.05,2000 ± 200
